The supplement of paper PMC10567573

B1: LARP4 (parent)
chain: WTVANMEEIKKLTTDPDLILEVLR

Variants of: B1
Assay: protein stability index of a GFP-peptide fusion (GPS, HEK-293T) (PSI 1-6); higher = more stable
Conditions: c terminus: a fixed tail appended
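Also: lentivirally expressed fusions sorted by FACS into six bins by GFP to DsRed ratio, PSI derived from sequencing read proportions per bin multiplied by bin number.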

Protein stability index, by site and new letter:
D17: P 2.2, T 1.77, L 1.52, Y 1.53, R 1.86, W 1.49, I 1.25, N 1.93, K 2.05, F 1.77, A 2.09, Q 2.32, E 1.79, G 1.51, S 2.02, H 1.88, M 2.16, C 1.44, V 1.98
L23: M 2.12, A 2.37, K 3.28, F 2.46, H 2.61, D 4.03, Q 2.63, I 2.65, C 3.17, N 3.56, E 2.96, P 2.89
L18: W 2.54, D 2.77, P 2.33, N 3.53, E 3.67, M 2.55, F 1.92, I 2.5, H 2.6, R 2.87, Y 3.46, T 2.26, C 2.34, A 2.71, V 2.99, G 2.95, Q 3.13, K 2.8, S 3.05
P16: K 1.59, T 1.89, S 2.28, M 2.11, W 1.43, V 1.2, I 1.67, N 1.93, E 2.22, Y 1.91, H 1.63, D 2.38, R 2.25, L 2.21, Q 1.84, C 1.75, F 1.63, A 1.55
T14: W 1.75, V 1.05, S 1.91, Y 1.65
V22: S 2.56, W 2.33, C 2.86, A 2.79, P 2.23, Q 3.18, R 2.48, E 3.59, Y 2.64, M 1.91, H 3.48, K 3.3, L 2.34, T 2.25, N 3.25, F 2.77, G 2.48, I 2.14, D 3.77
I19: R 3.21, K 3.21, Q 3.12, S 3.09, T 2.96, P 3.42, N 2.91, V 1.59, C 1.96, Y 2.67, E 3.4, H 2.82, A 2.49, L 2.12, W 2.47, D 3.77, F 2.18, G 2.26, M 2.73
E21: V 1.86, C 1.69, F 1.63, K 2.36, D 2.31, W 2.1, I 1.85, P 1.98, Y 2.12, S 1.66, N 2.32, M 2.08, A 2.1, T 1.9, R 1.92, Q 1.6, G 2.21, H 1.58, L 1.48
L20: M 2.02, P 3.02, C 2.56, E 3.68, K 3.53, A 3.37, T 2.52, I 2.1, V 2.19, W 2.01, Y 2.17, R 2.38, D 3.74, Q 3.64, N 3.24, H 2.64, S 2.1, G 2.01, F 2.15
D15: F 1.7, Y 1.38, S 1.53, K 2.05, M 2.26, P 1.97, A 1.69, Q 2.1, I 1.18, W 1.89, G 2.05, C 1.53, H 2.21, V 1.59, E 3.16, R 1.4, N 2.14, L 2.1, T 2
